Measured values reported in the nanobody polyreactivity screen of Harvey et al. (2022).

Assay: yeast display, Sf9 membrane polyspecificity reagent, FACS + sequencing; frameworks hold sequencing errors
In short: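 Sorting gates, low and high (top ~1%), were placed on anti-HA fluorescence to track expression and on streptavidin fluorescence to track reagent binding. A clone's polyreactivity label is taken from the gate it came out of. The reagent was 10% biotinylated, detergent-solubilized Sf9 membrane, applied for 1 hour at 4 °C to galactose-induced yeast display cells.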

## QVQLVESGGGLVQAGGSLRLSCAASGSTSYIYAMGWYRQAPGKERELVAAISKSGGRTYYADSVKGRFTISRDNAKNTVYLQMNSLKPEDTAVYYCAAVPGRTAEDYGEDYWGQGTQVTVSS
  polyreactivity (PSR sort gate): high polyreactivity

## HVQLVESGGGLVQAGGSLRLSCAASGFIFVSYAMGWYRQAPGKERELVAAITWSTTSTYYADSVKGRFTISRDNAKNTVYLQMNSLKPEDTAVYYCAKYNFQYKHDYWGQGTQVTVSS
  polyreactivity (PSR sort gate): low polyreactivity

## QVQLVESGGGLVQAGGSLRLSCAASGSNFFYYVMGWYRQAPGKERERVAAITRSTGSTYYADSVKGRFTISRDNAKNTVYLQMNSLIPEDTAVYSCAAEGPKWYYSGAFDYWGQGTQVTVSS
  polyreactivity (PSR sort gate): low polyreactivity

## QVQLVESGGGLVQAGGSLRLSCAASGNTFRPYAMGWYRQAPGKERELVARIRYGGGSTYYADSVKGRFTISRDNAKNTVYLQMNSLKPEDTAVYYCAVYRDQYRNFYYWGLGTQVTVSS
  polyreactivity (PSR sort gate): high polyreactivity

## QVQLVESGGGLVQAGGSLRLSCAASGRIFYYNAMGWYRQAPGKERELVAAISTRGTSTYYADSVKGRFTISRDNAKNTVYLQMNSLKPEDTAVYYCNRASGNWQSYLRYDYWGQGTQVTVSS
  polyreactivity (PSR sort gate): low polyreactivity

## QVQLVESGGGLVQAGGSLRLSCAASGFTFYDYAMGWYRQAPGKQREFVAAITWSGSSTYYADSVKGRFTISRDNAMNTVYLQMKSMKPEDTEVYYCAVGPFRRRGHYPTYYRYGYWGQGTEVTVSS
  polyreactivity (PSR sort gate): high polyreactivity

## QVQIVESGGGLVQAGGSLRISCAASGSTFPRNVMGWYRQAPGKERELVAAITSSGGSTYYADSVKGRFTISRDNAQHTVYLQMNSLKPADTAVYYCNAVSYYLGDDYWGQGTQVTVSS
  polyreactivity (PSR sort gate): high polyreactivity

## QVQLVESGGGLVQAGGSLRLSCAASGSTFRYYAKGWYRQAPGKERELVAAIAAGSNTNYADSVKGRFTISRDNAKNTVYLQMNSVKPEDTAVFYCAVASYARVQYEYWGQGTQVTVNS
  polyreactivity (PSR sort gate): low polyreactivity

## QVQLVESGGGLVQAGRSLRLTCAASGRTLGYNAMGWYRQPPGKERELVAAITYSGSRTYYADSVKGRFTISRDNAKNTVYLQMNSLKPEDTAVYYCAAGGYIAYYYYRFDYWGQGTQVTVSS
  polyreactivity (PSR sort gate): high polyreactivity

## QVQLVESGGGLVPAGGSLRLSCAASGSTFKIYAMGWYRQAPGKERELVARITSGGSTNYADSVKGRFTISRDNAKNTVYLQMNSLKPDDTAVYYCAARRWSYSTRGQRSTNLDYWGQGTQVTVSS
  polyreactivity (PSR sort gate): high polyreactivity

## QVQLVESGGGLVQAGGSLRLSCAASGSTFGRYAMGWSRQAPGKERELVAAITTSGRRTRYADSVKGRFTISRDNAKNTVYLQMNSLKPEDTAVYYCAASGAQGPDYDYWGQGTQVTVSS
  polyreactivity (PSR sort gate): low polyreactivity

## QVQLVESGGGLVQAGGSLRLSCAASGSIFVTYAMGWYRQAPGKERELVASISWRGVSTRYADSVKGRFTISRDNAKNTVYLQMNSLKPEDTAVDYCAAVYRRTRSGIFDYWGQGTQVTVSS
  polyreactivity (PSR sort gate): high polyreactivity

## QVQLVESGGGLVQAGGSLRLSCAASGRIFYPYAMGWYRQAPGKERELVASITSGGGTYYADSVKGRFTISRDNAKNSVYLQMNSLKPEDTAVYYCAAKYYTSWIRYDYWGQGTQVTVSS
  polyreactivity (PSR sort gate): low polyreactivity

## QVQLVESGGGLVQAGGSLRLSCAASGGIFKAYAMGWYRQAPGKEREFFAAITSSGGRTSYADSVKGRFTISRDNAKNNVYLQKNSLKQEDTAVYYCAAYGDGIVNSWDSYSEMDYWGQGTQVTVSS
  polyreactivity (PSR sort gate): low polyreactivity

## QVQLVESGGGLVQAGGSLRLSCAASGRTFYIYAMGWYRPAPGKERELVAAITSGRSTSYADSVKGRFTISRDNAKNTVYLQMNSLKPEDTAVYYCAADQYTYWFGYDYWGQGTQVTVSS
  polyreactivity (PSR sort gate): low polyreactivity

## QVQLVESGGGLVQAGGSLRISCAASGSISSDNVMGWYRQAPGKERELVAAISSGTSTHYADSVKGSFTISRDNAKNTVYLQMNSLNQEDTAVYYCAAYFYRQYLYFLYEYDYWGQGTQVTVSS
  polyreactivity (PSR sort gate): low polyreactivity

## QVQLVESGGGLVQAGGSLRLSCAASGFIFDRYAMGWYRQAPGKERELVAAISWTGGSTYYADSVKGRFTISRDNAKNTVYLQMNSLKPEDTAVYYCAVEYSLVYWSGVVDLGYWGQGTQVTVSS
  polyreactivity (PSR sort gate): high polyreactivity

## QVQLVESGGGLVQAGGSLRLSCAASGITFYGNAMGWYRQAPGKERELVAAINWGGTGTYYADSVKGRFTISRDNAKNTVYLQMNSLKPEDTAVYYCAAEVYTWGQGTQVTVSS
  polyreactivity (PSR sort gate): low polyreactivity

## QVQLVESGGGLVEAGGSLRLSCAASGSTFRRYAMGWYRQAPVKERELVAAISTRGGSTYYADSVKGRFTISRDNAKNTVYLQMNSLKPEDTEVYYCAADPYYTLGYYYWGQGTQVTVSS
  polyreactivity (PSR sort gate): high polyreactivity

## QVQLVESGGGLVQAGGSLRLSCAASGRTLYLYAMGWYRQAPGKERELVAAITYGGGSTYYADSVKGRFTISRDNAKNTVYLQMNSLKPEDTAVYYCNAPGDGYLYDHTYDYWGQGTQVTVSS
  polyreactivity (PSR sort gate): low polyreactivity

## QVQLVESGGGLVQAGGSLRLSCAASGYNFERNAMGWYRPAPGKERELVAAITDDGDDTYYADSVKGRFTISRDNAKNTVYLQMNSLKPEDTAVYYCAKDLYYGDYYYWGQGTQVTVSS
  polyreactivity (PSR sort gate): low polyreactivity

## QVQLVESGGGLLQAGGSLRLSCAASGRIFVHYVMGWYRQAPGKERELVAAINVSGGGTYYADSVKGRFTISRDNAKNTVYLQMNCLKPEDTAVFYCAAGTTQDWPFSSRSYFGHDSWGQGTQVTVSS
  polyreactivity (PSR sort gate): low polyreactivity

## QVQLVESGGRLVQAGGSLRLTCAASGRTFNYYAMGWYRQAPGKERELVAAISRSGGSTYYADSVKGRFTISRDNAKNTVYLQMNSLKPEDTAVYYCNRDRGSIYGWGQGTQVTVSS
  polyreactivity (PSR sort gate): high polyreactivity

## QVQLVESGGGLVQAGGSLRLSCAASGSSFGVNAMGWYRQAPGKERELVADISVRTDSTYYADSVKGRFTISRDNAKNTVYLQMNSLKPEDTAVYYCAAEVPYYYPGFYSYYDDSDYWGQGTQVTVSS
  polyreactivity (PSR sort gate): low polyreactivity

## QVQLVESGGGLVQAGGSLRLSCAASGFIFFRNAMGWYRQAPGKERELVAAISRSGGITYYADSVKGRFTISRDNAKNTVYLQMNSLKPEDTAVYYCNAAKASREQWTSFDYWGQGTQVTVSS
  polyreactivity (PSR sort gate): high polyreactivity

## QVQLVESGGGLVQAGGSLRLSCAASGSTFKRYAMGWYRQAPGKERELVASISSGGSTNYADSVKGRFTISRDNAKNTVYLQMNSLKPEDTAVYYCAVSYRSFRYYWERYYSWGQGTQVTVSS
  polyreactivity (PSR sort gate): high polyreactivity

## QVQLVESGGGLVQAGGSLRLSCAASGSIFVGYTMGWYRQAPGKERELVAAITSTGGSTSYADSVKGRFTISRDNAKNTVYLQMNSLKPEDTAVYYCAARGRGKTTSVAYYYWGQGTQVTVSS
  polyreactivity (PSR sort gate): high polyreactivity

## QVQLVESGGGLVQAGGSLRLSCAASGFTFSHNAMGWSRQAPGKERELVAGINGSGGSTYYADSVKGRFTISRDNAKNTFYLQMNSLKPEDTAVYYCSKDGSNRLALPAWDYNYWGQGTQVTVSS
  polyreactivity (PSR sort gate): low polyreactivity

## QVQLVESGGGLVQAGGSLRLSCAASGSIIGYYAMGWYRQAPGKERELVAAITASGGSTYYADSVKGRFTISRDNAKNTVYLQMNSLKPEDTAVYYCAAGTHTDYGRYYYWGQGTQVTVSS
  polyreactivity (PSR sort gate): low polyreactivity

## QVQLVESGGGLVQAGGSLRLSCAASGITFGAYAMGWYRQAPGKERELVAVITRGADTYYADSVKGRFTISRDNAKNTVYLQMNSLKPEETAVYYCAAQIDLPYYYGSDDDDYWGQGTQVTVSS
  polyreactivity (PSR sort gate): high polyreactivity

## QVQLVESGGGLVQAGGSLRLSCAASASTFYGYAMGRFRQAPGKERELVAAISSGGSTYYADSVKGRFTISRDNAKNTVYVQMNSLKPEVTAVYYCAAYSYPKKYGYWGQGTQVTVSL
  polyreactivity (PSR sort gate): high polyreactivity

## QVQLVESGGGLVQAGGSLRLRCAASGWYRQAAGKERELVAAITYSGGSTYYADSVKGRFTISRDNAKKTVYLQMNSLKPEDTAVYYCAAQPRVDYEFPYRYGYWGLGTQVTVSS
  polyreactivity (PSR sort gate): low polyreactivity

## QVQLVESGGGLVQAGGSLSLSCAASGRTFVPYAMGWDRQAPGKERELVAAISRSGSSTYYADSVKGRFTISRDNAKNTVYLQMNSLKPEDTAVYYCAADPVYYYIGDFNYWGQGTQVTVSS
  polyreactivity (PSR sort gate): high polyreactivity

## QVQLVESAGGLVQAGGSLRLSCAASGRIFGRYAMGWYRQAPGKERELVAAITSGTSTYYADSVKGRFTISRDNAKNTVYLQMNSLKPEDTAVYYCNADYPYYPYRENYWGQGTQVTVSS
  polyreactivity (PSR sort gate): low polyreactivity

## QDQHVESGGGLVQAGGSLRLSCAASRRTIDLYAMGWYRQAPGKERELVAAITKGGGSTYYADSVKGRFTISRDNATNTVYLQMNSLKPEDTAVFYCAARKYKRIYRISSGIGYYWGQGTQVTVSS
  polyreactivity (PSR sort gate): high polyreactivity

## QVQLVEAAGGLVQAGGSLRLSCAASGSIFRNNAMGWYSPAPGKARELVAVISRRSGNTYYADSVKGRLTISRENAKNPVYLLMNSLKPEDSAVYYCAADYSNSSIRGDYWGQGTEVTVSS
  polyreactivity (PSR sort gate): low polyreactivity

## QVQLVESRGGLVQAGGSLRLSCAASVGTFGLNAMGWYSQAPGKERELVADIDGRGGSTYYADSVKGRFTISRDNAKNTFDLQMNSLKPEDTAVYYSAARAPFLSVPSELDYWGQGTQVTVSS
  polyreactivity (PSR sort gate): low polyreactivity

## QVLLVESAGGLVQAGGSLRLSCAASGRTFYRYAMGWYRQAPGKERELVAVISWTSGSTYYADSVKGRFTISRDNAKNTVYLQMNSLKPEDTAVYYCAARRGGSYRYEYWGQGTQVTVSS
  polyreactivity (PSR sort gate): high polyreactivity

## QVQLVESGGGLVQAGGSLRLSCAASGFIFRRYAMGWYRQAPGKERELVAAISGRGASTYYGDSVKGRFTISRDNAKNNVYVQMNSLKPEDTAAYYCNAVPDNLNYDYWGQGTQVTVSS
  polyreactivity (PSR sort gate): high polyreactivity

## QVQLVESGGGLVQAGGSLRLSCAASGRIFYGYTMGWYRQAPGKERELVAAITWSGVSTYADSVKGRFTISRDNAKNTVYLQMNSLKPEDTAVYYCNADPIYGKRWRYYYWGQGTQVTVSS
  polyreactivity (PSR sort gate): high polyreactivity

## QVHLVESGGCLVQAGGSLRLSCAASGNSFVSNAMGWYIQAPGKERELVAAIDSGGSTNYADSVKGRFTISRDNAKNTVYLQMNSLKPVDTAVYYCNRTSVYYYYWGQGTQVTVSS
  polyreactivity (PSR sort gate): low polyreactivity

## QVQLVESGGGLVQAGGSLRLSCDASGSTFGYYTMVWYRPSPGKERELVAAISSSGGSTYYADSVKGRFTISRDNAKNTVYLQMYSLKPEDTAVYYCNAEYGFYRAGSRGEYWGQGTQVTVSS
  polyreactivity (PSR sort gate): low polyreactivity

## QVQLVESGGGLVQAGGSLRLSCAASGRIFDIYAMGWYRQAPGKEGELVAAIRLSSGTTYYADSLKGRITISRDYAKNNVYLQMSSVKQEDSAVYYCNAIYRRGRPGYYYWGQGTQVNVSS
  polyreactivity (PSR sort gate): high polyreactivity
